In patent US20180141988A1 (Pieris, published 2018):

Columns and labels:
[1] = biological target: T1, human GPC3 on stably transfected SK-HEP-1 cells (human, UniProt P51654 25-554); test: MSD-based (ECL) cell binding assay on transfected SK-HEP-1 cells
T1 construct: whole, on cells; also called SK-HEP-1::human GPC3
Method: (§1) Binding of optimized lipocalin muteins of SEQ ID NOs: 5-16 to human, cynomolgus and mouse GPC3 compared to SEQ ID NOs: 3 and 4 was tested on SK-HEP-1 cells using an ECL format (FIG. 1). In this experiment, dilution series of lipocalin muteins were incubated on MSD plates coated with human, cynomolgus or mouse GPC3 overexpressing SK-HEP-1 cells.
(§2) SEQ ID NOs: 3, 4, 5, 7, 8, 9, 10, 12, 13, 14, 15 and 16 (using 1000 nM as starting concentration) were serially diluted at a 1:3 ratio down to the picomolar range in PBS/Casein. 20 μl of the dilution series were transferred to the SK-HEP-1-coated plates for 1 hour at room temperature.
(§3) To allow for detection and quantification of bound GPC3 specific lipocalin muteins, the residual supernatants were discarded and 20 μl of a mixture of rabbit anti scaffold antibody (2 μg/ml) and Sulfotag labelled anti rabbit antibody (5 μg/ml) prepared in PBS/casein was added to the wells and incubated for 1 h at RT. After washing, 35 μl surfactant-free reading buffer was added to each well and the ECL intensity of every well was read using a MSD reader.

[2] = biological target: T2, mouse GPC3 on stably transfected SK-HEP-1 cells (mouse, UniProt Q8CFZ4 25-553); test: as above
T2 construct: whole, on cells; also called SK-HEP-1::mouse GPC3; murine GPC3
T2 sequence (Q8CFZ4 25-553 limits assumed): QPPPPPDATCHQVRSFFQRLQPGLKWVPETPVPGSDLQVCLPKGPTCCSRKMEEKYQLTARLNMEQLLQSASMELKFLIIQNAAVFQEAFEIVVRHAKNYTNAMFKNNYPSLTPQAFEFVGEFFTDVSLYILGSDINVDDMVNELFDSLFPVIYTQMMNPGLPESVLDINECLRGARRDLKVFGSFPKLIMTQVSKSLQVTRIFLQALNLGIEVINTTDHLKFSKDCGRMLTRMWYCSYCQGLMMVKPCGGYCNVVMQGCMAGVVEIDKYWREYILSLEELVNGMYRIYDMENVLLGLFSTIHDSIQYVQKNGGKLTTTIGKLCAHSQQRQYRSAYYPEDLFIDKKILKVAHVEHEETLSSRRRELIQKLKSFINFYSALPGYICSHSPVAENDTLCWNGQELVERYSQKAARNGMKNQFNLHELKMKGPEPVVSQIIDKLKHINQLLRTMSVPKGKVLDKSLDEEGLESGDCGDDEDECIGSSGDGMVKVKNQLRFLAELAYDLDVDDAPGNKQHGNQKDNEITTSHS
Method: as §1, §2, §3

[3] = biological target: T3, cynomolgus GPC3 on stably transfected SK-HEP-1 cells (cynomolgus, UniProt A0A2K5VK50 24-553); test: as above
T3 construct: whole, on cells; also called SK-HEP-1::cyno GPC3; SK-HEP-1::cynomolugus GPC3
Method: as §1, §2, §3

[4] = biological target: T4, Human GPC3 (2119-GP; R&D systems), biotinylated (human, UniProt P51654 25-559, biotinylated using standard NHS chemistry); test: SPR (Biacore T200), biotinylated GPC3 captured on chip, mutein in flow
T4 construct: Bought protein; also called human Glypican-3
T4 sequence (P51654 25-559 limits assumed): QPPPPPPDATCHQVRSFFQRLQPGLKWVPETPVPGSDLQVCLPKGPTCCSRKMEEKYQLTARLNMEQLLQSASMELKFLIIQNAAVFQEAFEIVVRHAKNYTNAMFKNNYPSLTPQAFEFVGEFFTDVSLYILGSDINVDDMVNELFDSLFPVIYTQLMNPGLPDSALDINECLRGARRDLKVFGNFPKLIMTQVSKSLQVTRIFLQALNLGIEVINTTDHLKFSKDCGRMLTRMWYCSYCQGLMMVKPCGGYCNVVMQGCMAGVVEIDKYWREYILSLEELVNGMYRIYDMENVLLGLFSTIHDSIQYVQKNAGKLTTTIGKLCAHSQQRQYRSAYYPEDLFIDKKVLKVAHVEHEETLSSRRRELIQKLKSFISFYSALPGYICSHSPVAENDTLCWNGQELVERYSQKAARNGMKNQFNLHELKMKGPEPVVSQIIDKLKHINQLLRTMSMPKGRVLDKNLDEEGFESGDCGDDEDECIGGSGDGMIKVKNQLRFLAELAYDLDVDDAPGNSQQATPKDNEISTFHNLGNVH
Method: (§4) SPR analysis of the binding of the optimized Lcn2 muteins to human and mouse GPC3 was performed at 25° C. on a Biacore T200 instrument (GE Healthcare) using HBS-EP+ (1x; BR-1006-69; GE Healthcare) as running buffer. The Biotin CAPture Kit (GE Healthcare) was used to immobilize biotinylated GPC3 to a chip surface. Human GPC3 (2119-GP; R&D systems) and murine GPC3 (6938-GP; R&D systems) were biotinylated using standard NHS chemistry. Undiluted Biotin CAPture Reagent (streptavidin conjugated with ss-DNA oligo) was captured on a Sensor Chip CAP with the pre-immobilized complementary ss-DNA oligo. Thereafter, biotinylated human or murine GPC3 at 1 μg/ml was applied for 300 s at a flow rate of […].
(§5) Lcn2 muteins were applied in concentrations of 10 nM, 40 nM and 160 nM at a flow rate of 30 μL/min. The dilutions were injected with association times of 180 s and dissociation times of 600 s to obtain ka and kd information. Regeneration of the chip surface was achieved by injecting 6 M Guanidinium-HCl+0.25 M NaOH (120 s) with a flow rate of 10 μL/min. Injection of regeneration solutions was followed by an extra wash step with H₂O and a stabilization period of 120 s.
(§6) The data were double-referenced by subtraction of the corresponding signals measured for the control channel (loaded with Biotin CAPture reagent only) and by subtraction of buffer injections from the binding responses. Association rate constant ka and dissociation rate constant kd for the binding reaction were determined using Biacore T200 Evaluation Software V2.0 for data processing and kinetic fitting. The data were globally fit with 1:1 binding model.

[5] = biological target: T5, murine GPC3 (6938-GP; R&D systems), biotinylated (murine, UniProt Q8CFZ4 25-558, limits assumed, biotinylated using standard NHS chemistry); test: as above
T5 construct: Bought protein; also called mouse GPC3
T5 sequence (Q8CFZ4 25-558 limits assumed): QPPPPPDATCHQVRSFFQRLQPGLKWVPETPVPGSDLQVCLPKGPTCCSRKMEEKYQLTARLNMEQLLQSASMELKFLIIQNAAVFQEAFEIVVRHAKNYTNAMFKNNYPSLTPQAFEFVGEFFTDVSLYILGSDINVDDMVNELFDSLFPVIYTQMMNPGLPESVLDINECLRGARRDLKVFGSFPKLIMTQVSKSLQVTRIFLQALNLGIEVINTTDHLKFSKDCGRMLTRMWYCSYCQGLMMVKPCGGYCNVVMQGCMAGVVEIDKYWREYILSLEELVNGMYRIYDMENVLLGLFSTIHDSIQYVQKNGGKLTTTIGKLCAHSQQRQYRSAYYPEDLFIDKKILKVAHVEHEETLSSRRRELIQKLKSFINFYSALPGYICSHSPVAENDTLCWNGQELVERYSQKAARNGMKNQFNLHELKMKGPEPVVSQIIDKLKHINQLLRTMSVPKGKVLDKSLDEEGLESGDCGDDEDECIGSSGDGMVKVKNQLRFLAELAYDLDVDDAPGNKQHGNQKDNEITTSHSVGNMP
Method: as §4, §5, §6

[6] = biological target: T1, human GPC3 on stably transfected …; test: MSD-based (ECL) cell binding assay on immobilized SK-HEP-1 cells transfected with human GPC3; detection with rabbit anti-scaffold antibody and Sulfotag-labelled anti-rabbit antibody
Method: as §1, §2, §3

T1 sequence (P51654 25-554 limits assumed): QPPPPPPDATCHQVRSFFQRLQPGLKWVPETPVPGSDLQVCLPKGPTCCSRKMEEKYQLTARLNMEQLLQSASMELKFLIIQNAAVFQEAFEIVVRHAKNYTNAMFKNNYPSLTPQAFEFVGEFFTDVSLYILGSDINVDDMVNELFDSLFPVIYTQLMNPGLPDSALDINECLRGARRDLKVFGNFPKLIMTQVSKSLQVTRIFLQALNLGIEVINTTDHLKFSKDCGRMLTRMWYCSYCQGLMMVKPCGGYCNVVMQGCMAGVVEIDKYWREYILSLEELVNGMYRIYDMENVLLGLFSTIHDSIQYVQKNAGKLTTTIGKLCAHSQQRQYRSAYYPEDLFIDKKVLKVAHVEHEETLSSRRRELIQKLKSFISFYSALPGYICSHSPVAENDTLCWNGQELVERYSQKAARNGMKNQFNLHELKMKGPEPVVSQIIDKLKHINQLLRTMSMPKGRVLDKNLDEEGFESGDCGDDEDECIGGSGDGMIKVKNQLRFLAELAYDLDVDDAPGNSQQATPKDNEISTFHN

Binder | EC50 [1] [nM] | EC50 [2] [nM] | EC50 [3] [nM] | Kd [4] [nM] | koff [4] [s⁻¹] | kon [4] [M⁻¹ s⁻¹] | Kd [5] [nM] | koff [5] [s⁻¹] | kon [5] [M⁻¹ s⁻¹] | binding result [6]
lipocalin mutein of SEQ ID NO: 15 (designed binder, hNGAL (Lcn2) mutein; also called optimized GPC3 specific lipocalin mutein) QDSTSDLIPAPPLSKVPLQQNFQDNQFQGKWYVVGRAGNVGLREDKDPPKMRATIYELKEDKSYDVTGVRFGEKKIKYSIGTFVPGSQPGEFTLGQIKSQPGDTANLVRVVSTNYNQHAMVFFKEVYQNREIFFIILYGRTKELTSELKENFIRFSKSLGLPENHIVFPVPIDQAIDGSAWSHPQFEK | 1.6 | 4.8 | 1.6 | 0.035 | 4.9e-05 | 1.4e+06 | 0.072 | 9.1e-05 | 1.3e+06 | 
lipocalin mutein of SEQ ID NO: 16 (designed binder, hNGAL (Lcn2) mutein; also called optimized GPC3 specific lipocalin mutein) QDSTSDLIPAPPLSKVPLQQNFQDNQFQGKWYVVGRAGNVGLREDKDPPKMRATIYELKEDKSYDVTGVRFDSKKVTYSIGTFVPGSQPGEFTLGQIKSEPGNTANLVRVVSTNYNQHAMVFFKEVYQNREIFFIILYGRTKELTSELKENFIRFSKSLGLPENHIVFPVPIDQAIDGSAWSHPQFEK | 2.2 | 4.4 | 2.5 | 0.171 | 0.00011 | 670000 | 0.311 | 0.00019 | 610000 | 
negative control lipocalin (SEQ ID NO: 2) (other) QDSTSDLIPAPPLSKVPLQQNFQDNQFHGKWYVVGLAGNAILREDKDPQKMYATIYELKEDKSYNVTSVLFRKKKCDYWIRTFVPGSQPGEFTLGNIKSYPGLTSYLVRVVSTNYNQHAMVFFKKVSQNREYFKITLYGRTKELTSELKENFIRFSKSLGLPENHIVFPVPIDQCIDG |  |  |  |  |  |  |  |  |  | no binding (tested: 1000 nM)
